Measured values from the supplement of paper PMC5949888.

System: Saccharomyces cerevisiae PS128 hsf1 delta, HSF1(1-493) fusion
Experiment: growth estimate (transactivation domain function in HSF1 fusion, heat-shock survival) (a.u. (slope of normalised read count over time)); higher = stronger growth at 37°C, i.e. more transactivation activity
Details: library: design library
Outline: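 Transactivation-domain oligos were designed and fused to a truncated yeast HSF1 (amino acids 1–493), then expressed in a yeast strain lacking hsf1. Replica plating onto –trp 5-FOA plates was followed by incubation at 30°C or 37°C for 0, 2, 4, 6 and 8 days. Inserts were amplified by PCR and sequenced on an Illumina MiSeq as six barcoded replicates from a single experiment. The growth estimate is the slope of a robust linear fit over time of read counts normalised to sample totals and to starting count.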

Row | Sequence | growth estimate
1 | QQNGAIAQLWDFN | -0.114
2 | EDLYSILWKDVY | < -0.25
3 | DLDGSWDYIFETTE | 0.41
4 | DFDLGMLGDFDLDMLG | 12.4
5 | DLDESWDRIFETTE | < -0.25
6 | QQNREIAQLWDFN | < -0.25
7 | DLDESRDYIFETTE | -0.153
8 | DELSWIIELLEKDP | 3.41
9 | EDLYSIKWSDVY | -0.245
10 | MLSSHGFSVDTSAALDLFSP | -0.124
11 | DALSWIIELLEKDG | < -0.25
12 | MLSSHGFSVDTPALLDLFSP | -0.228
13 | VADDIAEELLSEDL | -0.224
14 | VADDIWEELLSGDL | 3.96
15 | PEFPGIELQELQELQGLLQQ | < -0.25
16 | PELSWIIELLEKDG | -0.201
17 | EDAYSILWSDVY | -0.234
18 | DLDEPWDYIFETTE | 1.58
19 | MLSSHGASVDTSALLDLFSP | -0.0827
20 | MLSSHGFSVDTGALLDLFSP | -0.207
21 | DFDLDMLGDPDLDMLG | 10.1
22 | DELSRIIELLEKDG | < -0.25
23 | MLSSKGFSVDTSALLDLFSP | -0.115
24 | EFKDLLDLDFILSN | 0.512

Row | Sequence | growth estimate
25 | DELSWAIELLEKDG | < -0.25
26 | QQNGEIAQLKDFN | -0.215
27 | PEFPGIPLQELQELQALLQQ | -0.204
28 | PGFPGIELQELQELQALLQQ | -0.0439
29 | TMDDVYNYLPDD | < -0.25
30 | EFNDLLDLDFRLSN | 0.0126
31 | VADDIWEELLKEDL | 7.64
32 | EFNKLLDLDFILSN | < -0.25
33 | DEPSWIIELLEKDG | -0.161
34 | QQNGEIAQLWDAN | -0.23
35 | DFDLDMLGDADLDMLG | 5.13
36 | PFNDLLDLDFILSN | 0.542
37 | QQNGEIAQLWDPN | -0.246
38 | VADDIWEELGSEDL | -0.221
39 | TMDDVYNYLFKD | < -0.25
40 | EFNPLLDLDFILSN | < -0.25
41 | DLDESWDYAFETTE | < -0.25
42 | EDDDEFSLWDSML | 1.95
43 | EDLYSILWADVY | -0.181
44 | LPDYDFLFGNDFA | 2.12
45 | LFDYDKLFGNDFA | -0.159
46 | EDDDEFRLWDSML | -0.0562
47 | KFNDLLDLDFILSN | 0.326
48 | LFAYDFLFGNDFA | 0.948
